Source: the Human Domainome abundance scans (Beltran et al. 2025)
± gives the uncertainty stated by the source.

B1: Histone-lysine N-methyltransferase 2A, residues 1148 to 1194; numbered along this chain, Q03164 (parent)
chain: KGRRSRRCGQCPGCQVPEDCGVCTNCLDKPKFGGRNIKKQCCKMRKC

Variants of: B1
Experiment: abundance fitness (aPCA) (normalised: wild type 0, dead -1); higher = more abundant; growth selection in yeast, the domain comes from the species named
Conditions: Homo sapiens

Compared with KGRRSRRCGQCPGCQVPEDCGVCTNCLFKPKFGGRNIKKQCCKMRKC [D28F], KGRRSRRCGQCPGCQVPEDCGVCTNCSDKPKFGGRNIKKQCCKMRKC [L27S] is higher in abundance fitness: -0.856 ± 0.15 for the first, -0.554 ± 0.1 for the second.

First: KGRRSRRCGQCPGCQVPEDCGVCTNCCDKPKFGGRNIKKQCCKMRKC [L27C]
Second: KGRRSRRCGQCPGCQVPEDCGVCTNCQDKPKFGGRNIKKQCCKMRKC [L27Q]
The abundance fitness of the first is lower: -0.569 ± 0.16 for the first, -0.064 ± 0.14 for the second.

Compared with KGRRSRRCGQCPGCQVPEDCGVCTNCLDKPKFGGRNIKKQCCKRRKC [M44R], KGRRSRRCGQCPGCQVPEDCGVCTNCLDKPKFGGRNIKKQCCKCRKC [M44C] is lower in abundance fitness: -0.023 ± 0.076 for the first, -0.484 ± 0.1 for the second.

KGRRSRRCGQCPGCQSPEDCGVCTNCLDKPKFGGRNIKKQCCKMRKC [V16S] and KGRRSRRCGQCPGCQIPEDCGVCTNCLDKPKFGGRNIKKQCCKMRKC [V16I] are within error of each other in abundance fitness: -0.168 ± 0.087 for the first, -0.066 ± 0.14 for the second.

KGRRSRRCGQCPGCQAPEDCGVCTNCLDKPKFGGRNIKKQCCKMRKC [V16A] and KGRRSRRCCQCPGCQVPEDCGVCTNCLDKPKFGGRNIKKQCCKMRKC [G9C] are within error of each other in abundance fitness: -0.278 ± 0.1 for the first, -0.145 ± 0.18 for the second.

KGRRSRRCRQCPGCQVPEDCGVCTNCLDKPKFGGRNIKKQCCKMRKC [G9R] and KGRRSRRCTQCPGCQVPEDCGVCTNCLDKPKFGGRNIKKQCCKMRKC [G9T] are within error of each other in abundance fitness: -0.55 ± 0.097 for the first, -0.653 ± 0.13 for the second.

Compared with KGRRSRRCGQCPGCQVPEDCGVCTNCLDKPKFGGRNIKKQCCGMRKC [K43G], KGRRSRRCGQCPGCQVPEDCGVCTNCLDKPKFGGRNIKKQCCVMRKC [K43V] is higher in abundance fitness: -0.312 ± 0.098 for the first, 0.108 ± 0.085 for the second.

Compared with KGRRSRRCGQCPGCQVPEDCGVCTNCLDKPKFGGRNIKKQCCRMRKC [K43R], KGRRSRRCGQCPGCQVPEDCGVCTNCLDKPKFGGRNIKKQCCPMRKC [K43P] is lower in abundance fitness: -0.27 ± 0.076 for the first, -0.85 ± 0.13 for the second.

KGRRSRRCGQCPGCQVPEDCGKCTNCLDKPKFGGRNIKKQCCKMRKC [V22K] and KGRRSRRCGQCPGCQVPEDCGQCTNCLDKPKFGGRNIKKQCCKMRKC [V22Q] are within error of each other in abundance fitness: -0.079 ± 0.14 for the first, 0.079 ± 0.15 for the second.

KGRRSRRCGQCPGCQVPEDCGNCTNCLDKPKFGGRNIKKQCCKMRKC [V22N] and KGRRSRRCGQCPGCQVPEDCGHCTNCLDKPKFGGRNIKKQCCKMRKC [V22H] are within error of each other in abundance fitness: -0.28 ± 0.12 for the first, -0.046 ± 0.13 for the second.

KGRRSRRCGQCPGCQVPEDSGVCTNCLDKPKFGGRNIKKQCCKMRKC [C20S] and KGRRSRRCGQCPGCQVPEDRGVCTNCLDKPKFGGRNIKKQCCKMRKC [C20R] are within error of each other in abundance fitness: -0.832 ± 0.12 for the first, -0.654 ± 0.11 for the second.

KGRRSRRCGQCPGCQVPEDAGVCTNCLDKPKFGGRNIKKQCCKMRKC [C20A] and KGRRSRRCGQCPGCQVPEDQGVCTNCLDKPKFGGRNIKKQCCKMRKC [C20Q] are within error of each other in abundance fitness: -0.961 ± 0.13 for the first, -0.866 ± 0.17 for the second.

KGRRSRRCGQCPGCQVPEDPGVCTNCLDKPKFGGRNIKKQCCKMRKC [C20P] and KGRRSRRCGQCPGCQVPEDDGVCTNCLDKPKFGGRNIKKQCCKMRKC [C20D] are within error of each other in abundance fitness: -0.947 ± 0.21 for the first, -0.782 ± 0.21 for the second.

Compared with KGRRSRRCGQCPGCPVPEDCGVCTNCLDKPKFGGRNIKKQCCKMRKC [Q15P], KGRRSRRCGQCPGCAVPEDCGVCTNCLDKPKFGGRNIKKQCCKMRKC [Q15A] is higher in abundance fitness: -0.838 ± 0.14 for the first, -0.112 ± 0.089 for the second.

First: KGRRSRRCGQCPGCMVPEDCGVCTNCLDKPKFGGRNIKKQCCKMRKC [Q15M]
Second: KGRRSRRCGQCPGCTVPEDCGVCTNCLDKPKFGGRNIKKQCCKMRKC [Q15T]
The abundance fitness of the first is higher: 0.058 ± 0.11 for the first, -0.244 ± 0.1 for the second.

KGRRSRRCGQCPGCLVPEDCGVCTNCLDKPKFGGRNIKKQCCKMRKC [Q15L] and KGRRSRRCGTCPGCQVPEDCGVCTNCLDKPKFGGRNIKKQCCKMRKC [Q10T] are within error of each other in abundance fitness: -0.049 ± 0.081 for the first, -0.23 ± 0.12 for the second.

Compared with KGRRSRRCGICPGCQVPEDCGVCTNCLDKPKFGGRNIKKQCCKMRKC [Q10I], KGRRSRRCGQCPGCQVPEDCGVCTNCLDKPKFGGRYIKKQCCKMRKC [N36Y] is lower in abundance fitness: -0.02 ± 0.12 for the first, -0.569 ± 0.17 for the second.

KGRRSRRCGQCPGCQVPEDCGVCTNCLDKPKFGGRCIKKQCCKMRKC [N36C] and KGRRSRRCGQCPGCQVPEDCGVCTNCLDKPKFTGRNIKKQCCKMRKC [G33T] are within error of each other in abundance fitness: -0.344 ± 0.11 for the first, -0.526 ± 0.12 for the second.

Going from KWRRSRRCGQCPGCQVPEDCGVCTNCLDKPKFGGRNIKKQCCKMRKC [G2W] to KGRRSRFCGQCPGCQVPEDCGVCTNCLDKPKFGGRNIKKQCCKMRKC [R7F], the abundance fitness rises from -0.79 ± 0.16 to -0.192 ± 0.15.

KGRRSRRCGQCPGCQVPEDCGVCTNCLDKPKFGGRNIKKQCNKMRKC [C42N] and KGRRSRRCGQCPGCQVPEDCGVCTNCLDKPKFGGRNIKKQCTKMRKC [C42T] are within error of each other in abundance fitness: -1 ± 0.18 for the first, -0.824 ± 0.14 for the second.

Going from KGRRSRRCGQCGGCQVPEDCGVCTNCLDKPKFGGRNIKKQCCKMRKC [P12G] to KGRRSRRCGQCTGCQVPEDCGVCTNCLDKPKFGGRNIKKQCCKMRKC [P12T], the abundance fitness rises from -0.872 ± 0.096 to -0.5 ± 0.14.

Going from KGRRSRRCGQCCGCQVPEDCGVCTNCLDKPKFGGRNIKKQCCKMRKC [P12C] to KGRRSRRCGQCPGCQVPEDCGVCTNCLDKPKFGGRNNKKQCCKMRKC [I37N], the abundance fitness rises from -0.758 ± 0.14 to 0.093 ± 0.17.

Going from KGRRSRRCGQCPGCQVPEDCGVCTNCLDKPKFGGRNRKKQCCKMRKC [I37R] to KGRRSRRCGQCPGCQVPEDCGVCTNCLDKPKFGGRNVKKQCCKMRKC [I37V], the abundance fitness rises from -0.421 ± 0.082 to 0.02 ± 0.078.

KGRRSRRCGQCPGCQVPEDCGVCTNSLDKPKFGGRNIKKQCCKMRKC [C26S] and KGRRSRRCGQCPGCQVPEDCGVCTNWLDKPKFGGRNIKKQCCKMRKC [C26W] are within error of each other in abundance fitness: -1.02 ± 0.13 for the first, -0.778 ± 0.15 for the second.

KGRRSRRCGQCPGCQVPEDCGVITNCLDKPKFGGRNIKKQCCKMRKC [C23I] and KGRRSRRCGQCPGCQVPEDCGVPTNCLDKPKFGGRNIKKQCCKMRKC [C23P] are within error of each other in abundance fitness: -0.505 ± 0.2 for the first, -0.736 ± 0.16 for the second.

First: KGRRSRRCGQCPGCQVPEDCGVTTNCLDKPKFGGRNIKKQCCKMRKC [C23T]
Second: KGRRSRRCGQCPGCQVPEDCGVYTNCLDKPKFGGRNIKKQCCKMRKC [C23Y]
The abundance fitness of the first is higher: -0.641 ± 0.14 for the first, -0.987 ± 0.17 for the second.

Compared with KGMRSRRCGQCPGCQVPEDCGVCTNCLDKPKFGGRNIKKQCCKMRKC [R3M], KGRRSRRCGQCPGCQVPEDCGVCTNCLDKPKFGGRNIKKHCCKMRKC [Q40H] is lower in abundance fitness: 0.056 ± 0.16 for the first, -0.312 ± 0.18 for the second.

Work on KGRRSRRCGQCPGCQVPEDCGVCTNCLDKPKFGGRNIKKQCCKMRKA [C47A] yielded an abundance fitness of -0.695 ± 0.42.
